Measured values: US20260242735A1

Key:
Assay in all cases: flow cytometry, HEK293-T, alanine scan
human CD33 A289S (human) = human CD33 A289S (human) (UniProt P20138)
human CD33 A293S (human) = human CD33 A293S (human) (UniProt P20138)
human CD33 A328S (human) = human CD33 A328S (human) (UniProt P20138)
human CD33 A329S (human) = human CD33 A329S (human) (UniProt P20138)
human CD33 C276A (human) = human CD33 C276A (human) (UniProt P20138)
human CD33 D298A (human) = human CD33 D298A (human) (UniProt P20138)
human CD33 D335A (human) = human CD33 D335A (human) (UniProt P20138)
human CD33 E321A (human) = human CD33 E321A (human) (UniProt P20138)
human CD33 E333A (human) = human CD33 E333A (human) (UniProt P20138)
human CD33 F280A (human) = human CD33 F280A (human) (UniProt P20138)
human CD33 F345A (human) = human CD33 F345A (human) (UniProt P20138)
human CD33 G295A (human) = human CD33 G295A (human) (UniProt P20138)
Chain of human CD33 G295A (human) (P20138 18-364 G295A limits assumed): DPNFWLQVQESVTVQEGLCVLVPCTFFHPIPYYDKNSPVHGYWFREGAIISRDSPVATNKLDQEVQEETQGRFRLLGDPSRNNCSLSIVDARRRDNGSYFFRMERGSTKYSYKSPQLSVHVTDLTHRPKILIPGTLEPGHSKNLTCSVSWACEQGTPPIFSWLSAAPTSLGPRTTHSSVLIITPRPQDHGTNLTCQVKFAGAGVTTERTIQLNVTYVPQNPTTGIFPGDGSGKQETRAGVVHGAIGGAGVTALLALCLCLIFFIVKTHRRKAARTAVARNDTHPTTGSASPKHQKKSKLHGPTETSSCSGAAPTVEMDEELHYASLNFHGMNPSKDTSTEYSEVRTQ

human CD33 G327A (human) = human CD33 G327A (human) (UniProt P20138)
Chain of human CD33 G327A (human) (P20138 18-364 G327A limits assumed): as the sequence (P20138 18-364 G295A limits assumed) above, with A278G, G310A counted along it

human CD33 H285A (human) = human CD33 H285A (human) (UniProt P20138)
Chain of human CD33 H285A (human) (P20138 18-364 H285A limits assumed): as the sequence (P20138 18-364 G295A limits assumed) above, with H268A, A278G counted along it

human CD33 H300A (human) = human CD33 H300A (human) (UniProt P20138)
human CD33 H317A (human) = human CD33 H317A (human) (UniProt P20138)
human CD33 H339A (human) = human CD33 H339A (human) (UniProt P20138)
human CD33 I278A (human) = human CD33 I278A (human) (UniProt P20138)
human CD33 I281A (human) = human CD33 I281A (human) (UniProt P20138)
Chain of human CD33 I281A (human) (P20138 18-364 I281A limits assumed): as the sequence (P20138 18-364 G295A limits assumed) above, with I264A, A278G counted along it

human CD33 K288A (human) = human CD33 K288A (human) (UniProt P20138)
human CD33 K309A (human) = human CD33 K309A (human) (UniProt P20138)
Chain of human CD33 K309A (human) (P20138 18-364 K309A limits assumed): as the sequence (P20138 18-364 G295A limits assumed) above, with A278G, K292A counted along it

human CD33 K312A (human) = human CD33 K312A (human) (UniProt P20138)
human CD33 K313A (human) = human CD33 K313A (human) (UniProt P20138)
human CD33 L338A (human) = human CD33 L338A (human) (UniProt P20138)
human CD33 L343A (human) = human CD33 L343A (human) (UniProt P20138)
human CD33 N297A (human) = human CD33 N297A (human) (UniProt P20138)
human CD33 P308A (human) = human CD33 P308A (human) (UniProt P20138)
human CD33 P319A (human) = human CD33 P319A (human) (UniProt P20138)
human CD33 P330A (human) = human CD33 P330A (human) (UniProt P20138)
Chain of human CD33 P330A (human) (P20138 18-364 P330A limits assumed): as the sequence (P20138 18-364 G295A limits assumed) above, with A278G, P313A counted along it

human CD33 R287A (human) = human CD33 R287A (human) (UniProt P20138)
human CD33 R296A (human) = human CD33 R296A (human) (UniProt P20138)
Chain of human CD33 R296A (human) (P20138 18-364 R296A limits assumed): as the sequence (P20138 18-364 G295A limits assumed) above, with A278G, R279A counted along it

human CD33 S305A (human) = human CD33 S305A (human) (UniProt P20138)
human CD33 S323A (human) = human CD33 S323A (human) (UniProt P20138)
Chain of human CD33 S323A (human) (P20138 18-364 S323A limits assumed): as the sequence (P20138 18-364 G295A limits assumed) above, with A278G, S306A counted along it

human CD33 S326A (human) = human CD33 S326A (human) (UniProt P20138)
Chain of human CD33 S326A (human) (P20138 18-364 S326A limits assumed): as the sequence (P20138 18-364 G295A limits assumed) above, with A278G, S309A counted along it

human CD33 S342A (human) = human CD33 S342A (human) (UniProt P20138)
human CD33 T284A (human) = human CD33 T284A (human) (UniProt P20138)
human CD33 T292A (human) = human CD33 T292A (human) (UniProt P20138)
human CD33 T299A (human) = human CD33 T299A (human) (UniProt P20138)
human CD33 T302A (human) = human CD33 T302A (human) (UniProt P20138)
human CD33 T320A (human) = human CD33 T320A (human) (UniProt P20138)
human CD33 T322A (human) = human CD33 T322A (human) (UniProt P20138)
human CD33 T331A (human) = human CD33 T331A (human) (UniProt P20138)
Chain of human CD33 T331A (human) (P20138 18-364 T331A limits assumed): as the sequence (P20138 18-364 G295A limits assumed) above, with A278G, T314A counted along it

human CD33 V282A (human) = human CD33 V282A (human) (UniProt P20138)
Chain of human CD33 V282A (human) (P20138 18-364 V282A limits assumed): as the sequence (P20138 18-364 G295A limits assumed) above, with V265A, A278G counted along it

human CD33 V294A (human) = human CD33 V294A (human) (UniProt P20138)
human CD33 V332A (human) = human CD33 V332A (human) (UniProt P20138)
human CD33 Y340A (human) = human CD33 Y340A (human) (UniProt P20138)

Chain of human CD33 A289S (human) (P20138 18-364 A289S limits assumed): as the sequence (P20138 18-364 G295A limits assumed) above, with A272S, A278G counted along it
Chain of human CD33 A329S (human) (P20138 18-364 A329S limits assumed): as the sequence (P20138 18-364 G295A limits assumed) above, with A278G, A312S counted along it
Chain of human CD33 C276A (human) (P20138 18-364 C276A limits assumed): as the sequence (P20138 18-364 G295A limits assumed) above, with C259A, A278G counted along it

Refmab #7 (WM53) (antibody)
Mean % WT Binding (human CD33 A289S (human)): 107 % WT binding | Mean % WT Binding (human CD33 A293S (human)): 120 % WT binding | Mean % WT Binding (human CD33 A328S (human)): 119 % WT binding | Mean % WT Binding (human CD33 A329S (human)): 120 % WT binding | Mean % WT Binding (human CD33 C276A (human)): 110 % WT binding | Mean % WT Binding (human CD33 D298A (human)): 86.5 % WT binding | Mean % WT Binding (human CD33 D335A (human)): 106 % WT binding | Mean % WT Binding (human CD33 E321A (human)): 109 % WT binding | Mean % WT Binding (human CD33 E333A (human)): 91 % WT binding | Mean % WT Binding (human CD33 F280A (human)): 104 % WT binding | Mean % WT Binding (human CD33 F345A (human)): 140 % WT binding | Mean % WT Binding (human CD33 G295A (human)): 115 % WT binding | Mean % WT Binding (human CD33 G327A (human)): 110 % WT binding | Mean % WT Binding (human CD33 H285A (human)): 109 % WT binding | Mean % WT Binding (human CD33 H300A (human)): 106 % WT binding | Mean % WT Binding (human CD33 H317A (human)): 112 % WT binding | Mean % WT Binding (human CD33 H339A (human)): 133 % WT binding | Mean % WT Binding (human CD33 I278A (human)): 93.2 % WT binding | Mean % WT Binding (human CD33 I281A (human)): 110 % WT binding | Mean % WT Binding (human CD33 K288A (human)): 128 % WT binding | Mean % WT Binding (human CD33 K309A (human)): 93.6 % WT binding | Mean % WT Binding (human CD33 K312A (human)): 101 % WT binding | Mean % WT Binding (human CD33 K313A (human)): 108 % WT binding | Mean % WT Binding (human CD33 L338A (human)): 124 % WT binding | Mean % WT Binding (human CD33 L343A (human)): 96.2 % WT binding | Mean % WT Binding (human CD33 N297A (human)): 81.2 % WT binding | Mean % WT Binding (human CD33 P308A (human)): 111 % WT binding | Mean % WT Binding (human CD33 P319A (human)): 114 % WT binding | Mean % WT Binding (human CD33 P330A (human)): 102 % WT binding | Mean % WT Binding (human CD33 R287A (human)): 91.1 % WT binding | Mean % WT Binding (human CD33 R296A (human)): 93.6 % WT binding | Mean % WT Binding (human CD33 S305A (human)): 106 % WT binding | Mean % WT Binding (human CD33 S323A (human)): 109 % WT binding | Mean % WT Binding (human CD33 S326A (human)): 103 % WT binding | Mean % WT Binding (human CD33 S342A (human)): 95.2 % WT binding | Mean % WT Binding (human CD33 T284A (human)): 120 % WT binding | Mean % WT Binding (human CD33 T292A (human)): 119 % WT binding | Mean % WT Binding (human CD33 T299A (human)): 109 % WT binding | Mean % WT Binding (human CD33 T302A (human)): 113 % WT binding | Mean % WT Binding (human CD33 T320A (human)): 117 % WT binding | Mean % WT Binding (human CD33 T322A (human)): 102 % WT binding | Mean % WT Binding (human CD33 T331A (human)): 108 % WT binding | Mean % WT Binding (human CD33 V282A (human)): 106 % WT binding | Mean % WT Binding (human CD33 V294A (human)): 126 % WT binding | Mean % WT Binding (human CD33 V332A (human)): 112 % WT binding | Mean % WT Binding (human CD33 Y340A (human)): 112 % WT binding
